The values below come from the supplement of paper PMC12764529.

± gives the half width of the 95% confidence interval.

A short description of data set [1]: folding stability dG unfold (combined trypsin and chymotrypsin); higher = more stable. Summed up: (§1)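 Bayesian fitting of sequencing counts gave K50 for each design. Unfolding free energy followed by setting this against a sequence-predicted unfolded-state K50 and a shared folded-state K50, either per protease or with trypsin and chymotrypsin combined. The designs, under 80 residues and lacking cysteine, were digested in a PA-tagged cDNA display format at 11 threefold-diluted protease concentrations and without protease, and only those with AlphaFold2 dimer inter-PAE above 15 were kept.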

Data set [2] can be described thus: folding stability dG unfold from trypsin proteolysis; higher = more stable. Summed up: as §1
A short description of data set [3]: folding stability dG unfold from chymotrypsin proteolysis; higher = more stable. Summed up:
as §1

“SAGGMNTESSFPITLPDGRKVLKNVKTDPETGEITVTVTSIGDPNVKTTEKVDPENPEKVLETVTKPESAGG [r13_400_JUSTAS]”: the figures for the “folding stability dG unfold” value in data set [1], in data set [2] and in data set [3] were 0.0461 ± 0.15 kcal/mol, -0.353 ± 0.037 kcal/mol and 0.206 ± 0.11 kcal/mol, respectively.

In the case of “SAGGMNVSYLFSKSVPKEEIEAYLKKLDPNKKYKFEELEPEEIEKLPESIEVIEKPVDETLRLVLVEESAGG [r13_649_JUSTAS]”, the “folding stability dG unfold” value in data set [1] was 0.473 ± 0.12 kcal/mol; in data set [2], -0.323 ± 0.092 kcal/mol; in data set [3], 0.765 ± 0.11 kcal/mol.

Take “SAGGMNVTVTVELVPLPDEPVLFVTVETEDGSVSVITFDPATGTATVLKVSPTKTEITTVPAEDILLASAGG [r13_328_TrMRF]”: the “folding stability dG unfold” value in data set [1] was found to be 2.43 ± 0.2 kcal/mol; in data set [2], 1.8 ± 0.13 kcal/mol; in data set [3], 2.79 ± 0.11 kcal/mol.

In the case of “SAGGMPADTPVIPIEILDIRVEPDPESDSYTAEVKVRFPDGTEKTFTIKLPKDATLEDVIEKAKELAASAGG [r13_578_TrMRF]”, the entries for the “folding stability dG unfold” value in data set [1], in data set [2] and in data set [3] were 4.1 ± 0.18 kcal/mol, 3.83 ± 0.2 kcal/mol and 4.09 ± 0.11 kcal/mol, respectively.

On to “SAGGMPDITEVELLDVEYDPETGTYRFRVKVKLKDGTEREVEIPFVDEDGDFGIEEILKAAEELVEESAGGS [r16_221_TrMRF]”, for which the “folding stability dG unfold” value turned out to be 3.66 ± 0.18 kcal/mol in data set [1], 2.71 ± 0.14 kcal/mol in data set [2] and 4 ± 0.045 kcal/mol in data set [3].

“SAGGMPEDMKLKFKVVDFRPHPHPDGYQIVELFYNDKLLRRLRVPPGLAVKLAKELPEDVALVTLPESAGGS [r8_41_TrMRF]”: the “folding stability dG unfold” value in data set [1] stood at 1.28 ± 0.09 kcal/mol; in data set [2], 0.828 ± 0.086 kcal/mol; in data set [3] it was 1.53 ± 0.14 kcal/mol.

“SAGGMPENMKWRPIPFTQKNPDGLTLKMKIWVFPDPYILIEHEVEDNGKPVAEIPILLPADDPEDLKSAGGS [r16_714_TrROS]”: the “folding stability dG unfold” value is 0.389 ± 0.2 kcal/mol in data set [1], -0.66 ± 0.6 kcal/mol in data set [2] and 0.513 ± 0.42 kcal/mol in data set [3].

Take “SAGGMPGVRPVVTVTVLVKFPGPDETKTVTITMRPEELAAGVTPEAAARRVAEALGHDIEILEIERKSAGGS [r16_554_JUSTAS]”: the “folding stability dG unfold” value in data set [1] was 1.61 ± 0.088 kcal/mol; in data set [2], 1.4 ± 0.04 kcal/mol; in data set [3] it was 1.86 ± 0.031 kcal/mol.

Take “SAGGMPIILLEEKKLPNGEPVYRITLLERDPNDGSWRPIEEDELKTKEEAEERAKAIAEKRGVELLKSAGGS [r16_512_JUSTAS]”: the entries for the “folding stability dG unfold” value in data set [1], in data set [2] and in data set [3] were 1.43 ± 0.053 kcal/mol, 1.57 ± 0.026 kcal/mol and 1.34 ± 0.036 kcal/mol, respectively.

As for “SAGGMPKTIEVEIVFKRDEEGKIGIDKIKKAAEELAKKFPEVKKVEVDIEEDPETDYVKVKVKVEVESAGGS [r8_258_TrMRF]”, the “folding stability dG unfold” value came out at 2.1 ± 0.14 kcal/mol in data set [1], 1.75 ± 0.059 kcal/mol in data set [2] and 2.34 ± 0.032 kcal/mol in data set [3].

“SAGGMPLDSPEVQRRLAALKEALAKAEALREAGLEVKVVSIEFDPETREVTIEVEVRPAPPPPPEEPSAGGS [r8_277_TrROS_Hall]”: the “folding stability dG unfold” value in data set [1] stood at 1.92 ± 0.12 kcal/mol; in data set [2] it was 1.81 ± 0.1 kcal/mol; in data set [3] it was 1.77 ± 0.083 kcal/mol.

With “SAGGMPLVELEIVLPKEELEKLEEALRKLGYKVVKIEVVEYDPENDLVRVRIVLEKPMTLEELKKALKSAGG [r13_725_TrROS_Hall]”, the “folding stability dG unfold” value in data set [1] came out at 4.63 ± 0.61 kcal/mol; in data set [2], 3.72 ± 0.11 kcal/mol; in data set [3] it was 4.74 ± 0.18 kcal/mol.

As to “SAGGMPPENIKEITEVERNPDGMKEITIEMEDPELAKQGNPEQVDQMAEWLQDEFPDRGIPVTIEPGPSAGG [r13_243_TrROS]”, the figures for the “folding stability dG unfold” value in data set [1], in data set [2] and in data set [3] were 0.0457 ± 0.28 kcal/mol, 0.514 ± 0.081 kcal/mol and -0.435 ± 0.28 kcal/mol, respectively.

For “SAGGMPPGYRVVLVTKEVETVTFEKKPGNENEYTTTPKIVPREEVVEVTSPEVLAELEAEGYEVTPASAGGS [r8_482_JUSTAS]”, the “folding stability dG unfold” value is -0.0223 ± 0.11 kcal/mol in data set [1], 0.00788 ± 0.031 kcal/mol in data set [2] and -0.154 ± 0.17 kcal/mol in data set [3].

On to “SAGGMPPVKVPVKVTISMKDPKTGKTFTVPVEKVATSEEDLEEIKKEVEELAKELKEKGYKEIEIKIESAGG [r13_360_JUSTAS]”, for which the “folding stability dG unfold” value in data set [1] came out at 2.87 ± 0.1 kcal/mol; in data set [2], 2.14 ± 0.061 kcal/mol; in data set [3], 3.14 ± 0.08 kcal/mol.

For “SAGGMPTTSSSAVKLDGGSDSVTTTTLPDGSRVVYIVSSDGKVYKATVTGGTTTWTEVKTVPPAELSSAGGS [r16_48_JUSTAS]”, the “folding stability dG unfold” value in data set [1] was 2.13 ± 0.051 kcal/mol; in data set [2], 1.53 ± 0.031 kcal/mol; in data set [3], 2.406 ± 0.018 kcal/mol.

For the sequence “SAGGMPVTVEITVDLVLDPRYRPRPVYPPGETWREPERRVLPVTFTATFGDPEDAERAAVELLRALGVSAGG [r13_35_TrMRF]”, the “folding stability dG unfold” value is 1.45 ± 0.062 kcal/mol in data set [1], 0.866 ± 0.041 kcal/mol in data set [2] and 1.73 ± 0.032 kcal/mol in data set [3].

On to “SAGGMPVTVTLDLSDLTPEEIERLLTEAVEAHPDPAAVTVRVKTDDPALEAAVRAAAEALPAVAVTLESAGG [r13_718_JUSTAS]”, for which the “folding stability dG unfold” value in data set [1] is 0.0912 ± 0.21 kcal/mol; in data set [2], -0.86 ± 0.54 kcal/mol; in data set [3], 0.263 ± 0.051 kcal/mol.

Regarding “SAGGMPVVKVTLRVELPETGETVDVTLYVDPSVPEEYLERLVRRVAEEVARLLRLPPPPVPPRPDELSAGGS [r16_191_TrMRF]”, the “folding stability dG unfold” value is 3.52 ± 0.095 kcal/mol in data set [1], 3.29 ± 0.12 kcal/mol in data set [2] and 3.64 ± 0.057 kcal/mol in data set [3].

Take “SAGGMPYTLVGEKTESLGEGNTVVTKTYKPPDGTYTVETTTITTDPENGSTSTTSTTTTIPPNTPEALSAGG [r19_173_JUSTAS]”: the “folding stability dG unfold” value was -0.1 ± 0.31 kcal/mol in data set [1], -1.12 ± 0.34 kcal/mol in data set [2] and 0.334 ± 0.25 kcal/mol in data set [3].

“SAGGMRLVFVTETPEEAEEIARELAELFPDFELEAEVREEEVLVEVPETGEVKRRPVYVLVIELRPKSAGGS [r16_828_TrMRF]”: the “folding stability dG unfold” value in data set [1] is 4.41 ± 0.079 kcal/mol; in data set [2] it was 4.29 ± 0.098 kcal/mol; in data set [3] it was 4.42 ± 0.059 kcal/mol.

As to “SAGGMSITITTNAPKEVLLRFIKDLAEEIGVEVDVEVTVEPLEDGPIVTAHVHIDPKEPEVPLEELFSAGGS [r16_262_TrMRF]”, the results for the “folding stability dG unfold” value in data set [1], in data set [2] and in data set [3] were 0.642 ± 0.085 kcal/mol, 0.75 ± 0.018 kcal/mol and 0.384 ± 0.074 kcal/mol, respectively.

In the case of “SAGGMSKEELAKKLAKELAEKLGIKEIKEIKIEKKKDKVKITIVFKENKKIIEIELKDGKIVKIKEKSAGGS [r16_171_TrROS_Hall]”, the “folding stability dG unfold” value came to 3.26 ± 0.16 kcal/mol in data set [1], 3.36 ± 0.15 kcal/mol in data set [2] and 3.22 ± 0.16 kcal/mol in data set [3].

As to “SAGGMSLHIPLPANNEELAEELAEELRDLYAAIPGTPGEVEVDIEPTPEGGYRLIVRFPDHVDEIPASAGGS [r16_356_TrMRF]”, the “folding stability dG unfold” value in data set [1] came to 1.34 ± 0.073 kcal/mol; in data set [2], 1.3 ± 0.014 kcal/mol; in data set [3], 1.19 ± 0.11 kcal/mol.

In the case of “SAGGMSPELKKNKNVEKVIYNKKTGKVFVYNKKTKKLYIFTKNGKKIEIKMSKDEVEKLLKKGFKPISAGGS [r16_745_TrROS_Hall]”, the “folding stability dG unfold” value in data set [1] was 2.86 ± 0.2 kcal/mol; in data set [2], 2.14 ± 0.11 kcal/mol; in data set [3], 3.22 ± 0.16 kcal/mol.

Consider “SAGGMTEELEITTPDNYKIKITKTLNPNTTKPTYTVKIYEKKSGKVLLEKEFSSLEEAEEFIKNGYGSAGGS [r8_450_TrMRF]”, for which the “folding stability dG unfold” value is 4.65 ± 0.069 kcal/mol in data set [1], 4.73 ± 0.18 kcal/mol in data set [2] and 4.596 ± 0.042 kcal/mol in data set [3].

For the sequence “SAGGMTIEEILNMSIEEVKALAEEKGLKEVVITLPDGSKITIKVNKDGSIEVTVTNKDGSKKTFTFPSAGGS [r8_51_TrROS_Hall]”, the “folding stability dG unfold” value in data set [1] was 4.05 ± 0.24 kcal/mol; in data set [2], 3.91 ± 0.42 kcal/mol; in data set [3], 3.97 ± 0.1 kcal/mol.

Regarding “SAGGMTIEELLKKNPELKELVKKGYVIEITYPDGKKETIKISEEDLKKILDDIKKKTNKPVEIKILPSAGGS [r16_655_TrROS_Hall]”, the figures for the “folding stability dG unfold” value in data set [1], in data set [2] and in data set [3] were 1.54 ± 0.32 kcal/mol, 1.05 ± 0.081 kcal/mol and 1.82 ± 0.17 kcal/mol, respectively.

In the case of “SAGGMTIITTTFTLKLPSNGKVVTVTKTYNLSPEEGKKEAEKIAKEIAEELKEPTEILEIKITYYPESAGGS [r16_140_JUSTAS]”, the “folding stability dG unfold” value in data set [1] was determined as 1.7 ± 0.27 kcal/mol; in data set [2], 1.26 ± 0.092 kcal/mol; in data set [3], 2 ± 0.085 kcal/mol.

For “SAGGMTIKPGETVEIEVGGKKITLTRNENGELTITIEDEETGETLTITVPKDTTLEEVLKKIEELLKSAGGS [r8_158_TrROS_Hall]”, the “folding stability dG unfold” value in data set [1] came to 3.61 ± 0.06 kcal/mol; in data set [2], 4.04 ± 0.15 kcal/mol; in data set [3], 3.45 ± 0.064 kcal/mol.

As to “SAGGMTITIEKEGDTLKVTITIRDAATNETYTVEATLTRKEDGSLTLEIRFEDGSTKTINLKDIKLVSAGGS [r16_154_TrROS_Hall]”, the “folding stability dG unfold” value was found to be 3.76 ± 0.47 kcal/mol in data set [1], 3 ± 0.21 kcal/mol in data set [2] and 4.11 ± 0.41 kcal/mol in data set [3].

On to “SAGGMTKTILIYDEETGVLVRIEIKVNPETGEIEEIKIETETLEDGTVKMKITLKDGTEIEVEIKPLPSAGG [r13_515_TrROS_Hall]”, for which the figures for the “folding stability dG unfold” value in data set [1], in data set [2] and in data set [3] were 3.25 ± 0.62 kcal/mol, 3.45 ± 0.46 kcal/mol and 3.08 ± 0.28 kcal/mol, respectively.

With “SAGGMTLDELRALLAAGKVTIEPVAPDRWLVTVRGPDGEEFTFEFESLEELLDALRAIPGLEVEVRPVSAGG [r13_600_TrROS_Hall]”, the “folding stability dG unfold” value in data set [1] came to 3.71 ± 0.044 kcal/mol; in data set [2], 3.29 ± 0.1 kcal/mol; in data set [3], 3.905 ± 0.036 kcal/mol.

Regarding “SAGGMTLDQLKHALRHKKMQIHEPNPNGWYVTFQNPDGKPPTFPVKSDDELRDILRDAPGFEVEVQPVSAGG [r13_600_TrROS]”, the “folding stability dG unfold” value is 0.608 ± 0.2 kcal/mol in data set [1], -0.0886 ± 0.17 kcal/mol in data set [2] and 0.84 ± 0.16 kcal/mol in data set [3].

With “SAGGMTLEDLAGQSIEEALDLIEENGWDEVTITYPGGSKIEIKYNKDGPIEVEWENPDGNKQTFTIPSAGGS [r8_51_TrROS]”, the “folding stability dG unfold” value in data set [1] was determined as 0.833 ± 0.083 kcal/mol; in data set [2] it was 0.644 ± 0.074 kcal/mol; in data set [3] it was 0.907 ± 0.1 kcal/mol.
